By EC50 is commonly meant the midpoint of the concentration-response curve.

Experiment [1] deals with T1, human LILRB2 on CHOK1 cells (human, UniProt Q8N423 22-597).
T1 construct: whole, on cells; also called CHOK1-hLILRB2; CHOK1-LILRB2
Briefly: FACS binding, CHOK1-hLILRB2 cells. (In general: In flow cytometry, cells or beads pass a laser one at a time.)

The target in experiment [2] is T2, human LILRB1 on CHOK1 cells (human, UniProt Q8NHL6 24-650).
T2 construct: whole, on cells; also called CHOK1-hLILRB1; CHOK1-LILRB1
Briefly: cell-based RBA (FACS): blocking of HLA-G binding to CHOK1-hLILRB1 cells.

The target of experiment [3] is T2, human LILRB1 on CHOK1 cells. Put plainly: FACS binding, CHOK1-hLILRB1 cells.

T1 sequence (Q8N423 22-597): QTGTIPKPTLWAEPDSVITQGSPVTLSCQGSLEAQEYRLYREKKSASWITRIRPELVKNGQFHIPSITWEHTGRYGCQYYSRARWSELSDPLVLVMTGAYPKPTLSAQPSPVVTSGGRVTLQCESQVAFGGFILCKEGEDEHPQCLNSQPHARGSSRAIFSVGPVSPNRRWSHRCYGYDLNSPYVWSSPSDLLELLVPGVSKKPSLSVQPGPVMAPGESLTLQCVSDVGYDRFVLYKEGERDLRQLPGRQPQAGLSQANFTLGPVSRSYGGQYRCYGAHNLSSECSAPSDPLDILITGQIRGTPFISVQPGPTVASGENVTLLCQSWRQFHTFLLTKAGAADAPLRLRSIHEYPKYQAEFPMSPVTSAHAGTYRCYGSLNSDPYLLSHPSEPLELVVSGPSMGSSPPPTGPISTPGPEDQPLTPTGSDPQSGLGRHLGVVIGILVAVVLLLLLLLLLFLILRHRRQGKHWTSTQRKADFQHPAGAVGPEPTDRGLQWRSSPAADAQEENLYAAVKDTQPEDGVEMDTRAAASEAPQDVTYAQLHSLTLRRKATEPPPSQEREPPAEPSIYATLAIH
T2 sequence (Q8NHL6 24-650): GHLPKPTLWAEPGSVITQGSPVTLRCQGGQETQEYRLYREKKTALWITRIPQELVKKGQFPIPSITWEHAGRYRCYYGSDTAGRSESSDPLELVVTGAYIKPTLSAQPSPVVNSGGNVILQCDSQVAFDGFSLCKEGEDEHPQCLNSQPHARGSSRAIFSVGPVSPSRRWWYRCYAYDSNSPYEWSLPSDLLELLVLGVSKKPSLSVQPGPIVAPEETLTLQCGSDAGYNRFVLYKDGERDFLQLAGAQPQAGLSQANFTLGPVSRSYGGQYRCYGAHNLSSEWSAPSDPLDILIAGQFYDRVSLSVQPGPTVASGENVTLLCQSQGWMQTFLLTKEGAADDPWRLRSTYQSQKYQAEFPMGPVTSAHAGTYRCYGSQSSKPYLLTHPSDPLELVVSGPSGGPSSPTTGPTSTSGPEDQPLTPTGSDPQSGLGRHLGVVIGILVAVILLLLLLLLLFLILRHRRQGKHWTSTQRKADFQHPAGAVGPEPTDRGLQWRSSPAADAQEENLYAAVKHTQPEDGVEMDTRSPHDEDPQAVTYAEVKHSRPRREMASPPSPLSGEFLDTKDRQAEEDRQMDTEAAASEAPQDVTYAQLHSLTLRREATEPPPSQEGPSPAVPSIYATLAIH

B1: LK-RB1-2 (antibody, human IgG4 S228P, kappa, V domains shown)
VH: QIQLVQSGPELKKPGETVKISCKASGYTFTTYGVSWVKQAPGKGLKWMGWINTYSGVSTYSDDFKGRFAFSLETSASTAYLQIINLKNEDAATYFCSRRRRTYDGYLSFDYWGQGTTLTVSS
VL: DIQMTQSPGSLSASVGETVTITCGASENIYGALNWFQRKPGKSPQLLIYGATNLADGMSSRFSGSGSGRQYSLQISSLRPDDVATYYCQNVLTTPWTFGGGTKVEIKR
For the molecule B1, the binding result in experiment [1] is “no binding”. Besides, in experiment [2], the EC50 was 0.44 nM and the “Top Inhibition (%)” value was determined as 81.9%. For the same molecule, the EC50 in experiment [3] was 0.28 nM.

B2: LK-RB1-44 (antibody, human IgG4 S228P, kappa, V domains shown)
VH: QVQLQQSGTELAKPGASVKLSCKASGYTFTNYWMHWIKQRPGQGLEWIGYVHPTSDYTKYNQKFKDKATLTADKSSSTAYMQLNSLTYEDSAVYYCTRSSLYDTNYVFDSWGQGTTLTVSS
VL: DILLTQSPAILSVSPGERVSFSCRASQSIGRSIHWFQQRTNGSPSLLIKYASESISGIPSRFSGGGSGTDFTLSISNVESEDIADYYCQQSNNWPFTFGSGTKLEIKR
Regarding B2, in experiment [1], the binding result is given as “no binding”. For the same molecule, a half-maximal response in experiment [3] (EC50) required 2.79 nM.

B3: LK-RB1-45 (antibody, human IgG4 S228P, kappa, V domains shown)
VH: QVQLQQSGTELARPGASVKLSCKASGYTFTNFWMHWIKQRPGQGLEWIGYVNPTSDYTKYNQKFKDKATLTADKSSSTAYMQLNSLTYEDSAVYYCTRSSLYDTNYVFDSWGQGTTLTVSS
VL: DILLTQSPAILSVSPGERVSFSCRASQSIGRSIHWYQQRTNGSPRLLIKYASESISGIPSRFSGGGSGTDFTLSISNVESEDIADYYCQQSNNWPFTFGSGTKLEIKR
In the case of B3, in experiment [1], the binding result was “no binding”. In addition, in experiment [3], the midpoint of the response, the EC50, lay at 1.78 nM.

B4: LK-RB1-6 (antibody, human IgG4 S228P, kappa, V domains shown)
VH: QIQLVQSGPELKKPGETVKISCKASGYTFTTYGMSWVKQAPGKDLKWMGWINTFSGVPACADDFQGRFDFSAEPSDSTAHLQINNLKNEDTATYFCARRSYYGSRGWYFDVWGTGTTVTVSS
VL: DIVMTQSHKFMSTSVGDRVSITCTASEDVNTAVAWYQQKPGQSPKLLIYWASTRHTGVPDRFTGSGSGTDYTLTISSVQTEDLALYYCQQHYNTPYTFGGGTKLEIKR
As to B4, the binding result in experiment [1] was “no binding”. Also, in experiment [2], the midpoint of the response, the EC50, lay at 0.54 nM and the “Top Inhibition (%)” value came out at 69.7%. This molecule came in with an EC50 in experiment [3] of 0.22 nM.

B5: LK-RB1-7 (antibody, human IgG4 S228P, kappa, V domains shown)
VH: QIQLVQSGPELKKPGETVKISCKASGYTFTTYGMSWVKQAPGKDLKWMGWINTFSGVPACADDFQGRFDFSAEPSDSTAHLQINNLKNEDTATYFCARRSYYGSRGWYFDVWGTGTTVTVSS
VL: DVQMIQSPSSLSASLGDIVTMTCQASQDTTINLNWFQQKPGKVPKLLIYGASNLEDGVPSRFSGSSFGTDFTLTISSLEDEDMATYFCLQHTYLPRTFGGGTKLEIRR
As for B5, in experiment [1], the binding result is on record as “no binding”. In experiment [2], the midpoint of the response, the EC50, lay at 0.54 nM and the “Top Inhibition (%)” value was determined as 69.7%. In addition, the EC50 in experiment [3] stood at 0.22 nM.

B6: LK-RB1-5 (antibody, human IgG4 S228P, kappa, V domains shown)
VH: QVQLQQPGAELVKPGASVKLSCKASGYTFTDFWIHWVKQRPGQGLEWIGMIHPNSGSTNFNEKFRAKATLTVDKSSSTAYMRLSSLTSEDSAVYYCARSGDGYSNPMDYWGQGTSVTVSS
VL: QIVLSQSPAILSASPGEKVTLTCRASSSVSYMHWYQQKPGSSPKPWIYATSNLASGVPVRFSGSGSGTSYSLTISRMQTEDAATYYCQQWRRSPYTFGGGTKLEIKR
B6: in experiment [1], the binding result is given as “no binding”. Moreover, in experiment [2], the EC50 came to 1.97 nM and the “Top Inhibition (%)” value was 23%. In experiment [3], this molecule registered an EC50 of 1.4 nM.

B7: LK-RB1-4 (antibody, human IgG4 S228P, kappa, V domains shown)
VH: QVQLQQPGAELVKPGASVKLPCKTSGYTFTSYWMHWVKQRPGRGLEWIGRIDPHYSGTKYNEKFKNKATMTVDTPSSTAYMQLSSLTSEDSAVYYCARFDGDPYYFDYWGPGTTLTVSS
VL: DIVMTQSQKFMSTSVGDRVSVTCKASQNVGTNVAWYKQKAGQSPKAVIYSASYRYSGVPDRFTGSGSGTDFTLSISNVQSEDLAEYFCQQYNNNPFTFGSGTKLEIKR
Take B7: the binding result in experiment [1] is given as “no binding”. Further, the EC50 in experiment [2] was 1.74 nM; in experiment [3] it was 1 nM. In addition, in experiment [2], the “Top Inhibition (%)” value turned out to be 85.9%.

B8: LK-RB1-37 (antibody, human IgG4 S228P, kappa, V domains shown)
VH: QVQLQQPGAELVKPGASVKLSCKASGYTFTSYWMHWVKQRPGRGPEWIGRIDPNSGYARYNEKFKNKATLTADKPSSTADMHLSSLTSEDSAVYYCTRSFITTAEWFFDVWGTGTTVTVSS
VL: DILLTQSPAILSVSPGERVSFSCRASQSIGTSIHWYQQRRNGSPRLLIKYTSESISGIPSRFSGSGSGTDFTLSINSVESEDIADYYCQQSNSWPHTFGGGTKLELKR
As for B8, the binding result in experiment [1] is “no binding”. In experiment [3], this molecule had a half-maximal effective concentration (EC50) of 2.51 nM.

B9: LK-RB1-46 (antibody, human IgG4 S228P, kappa, V domains shown)
VH: EVQLQQSGPELVKPGASVKISCKTSGYTFTDYYMNWVKQSHGKSLEWIGDIYPINGDISYNQKFKGKATLTVDKSSSTVYMEIRSLTYEDSAVYYCARLAQTTSGGFDYWGQGTTLTVSS
VL: DIVLTQSPTSLAVSLGQRAIISCKASQSVSFAGTSLMHWYQQKPGQQPKLLIYRASNLKAGVPTRFSGSGSRTDFTLNIHPVEEDDAATYYCQQSREYPMYTFGGGTKLEIKR
With B9, the binding result in experiment [1] is given as “no binding”. A half-maximal response in experiment [3] (EC50) required 0.97 nM.

B10: LK-RB1-1 (antibody, human IgG4 S228P, kappa, V domains shown)
VH: QIQLVQSGPELKKPGETVKISCKASGYSFTNFGMSWVKQAPGKALKWMGWINTYSGVPTYADDFKGRFAFSLETSANTAYLQINNLKNEDSATYFCARRRRTFDGYLCFDYWGQGATLTVSS
VL: QLVLTQSSSASFSLGASAKLTCTLSSQHSTYSIDWYQQQPLKPPKYVMELKTDGSHRTGDGIPDRFSGSSSGADRYLSISNIQPEDEAIYICGVGDTIKEQFVYVFGGGTKVTVLR
As to B10, in experiment [1], the binding result was “no binding”. Moreover, in experiment [2], a half-maximal effect (EC50) was put at 0.32 nM and the “Top Inhibition (%)” value turned out to be 78%. Moreover, the midpoint of the response in experiment [3], the EC50, lay at 0.17 nM.

B11: LK-RB1-51 (antibody, human IgG4 S228P, kappa, V domains shown)
VH: QVQIQQSGAELVKPGASVKLSCKASGYTFTEFPIHWIKQRSGQGLEWIGWFYPGSDNMNYNEKFKDKATLTADKSSSTVYMELSRLTSEDSAVYFCARHENAYFYAMDYWGQGTSVTVSS
VL: ENVLTQSPAIMSASLGEKVTMSCRASSSVNYMYWYQQKSDASPKIWIYYTSNLAPGVPARFSGSGSGNSYSLTISSMEGEDAATYYCQQFTSSPFTFGTGTKLEIKR
Regarding B11, the binding result in experiment [1] and in experiment [3] was “no binding” in each case.

B12: LK-RB1-3 (antibody, human IgG4 S228P, kappa, V domains shown)
VH: QVQLQQPGAELVKPGTSVNLSCKASGYTFTSYWIHWVKQRPGRGLEWIGRINPYSSGTRYNEKFKNKATLTVDKPSSTAYMQLTSLTSEDSAVYYCARFDGAPDYFDFWGQGTTLTVSS
VL: DIVMTQSQKFMPTSVGDRVNVTCKASQNVGINVAWYQQKLGQSPKALIYSASYRYSGVPDRFTGSGSGTDFTLTINSVQSEDLADYFCQQYNNYPFTFGSGTKLEIKR
As for B12, in experiment [1], the binding result is “no binding”. Further, the EC50 was found to be 2.08 nM in experiment [2] and 1.14 nM in experiment [3]. Moreover, the “Top Inhibition (%)” value in experiment [2] amounted to 87%.

B13: LK-RB1-38 (antibody, human IgG4 S228P, kappa, V domains shown)
VH: DVQLQESGPGLVQPSQSLSLTCSVTGYSITSGYQWNWIRQLPGNKLEWMAYISFDGSNNYNPSLKNRISITRDTSKNQFFLKLKSVTTEDTATYYCARRDYDGVAYWGQGTLVTVSA
VL: EIVLTQSPATLSVTPGDRVSLSCRASQNISNYLHWYQQKSHGSPRLIIKYASQSISGIPSRFSGSGSGTDFTLSINSVETEDFGMYFCQQSNSWPLTFGAGTKLELKR
For the molecule B13, in experiment [1], the binding result is “no binding”. The molecule also gave an EC50 in experiment [3] of 2.45 nM.

B14: LK-RB1-40 (antibody, human IgG4 S228P, kappa, V domains shown)
VH: DVQLQESGPGLVQPSQSLSLTCSVTGYSITSGYQWNWIRQLPGNKLEWMAYISFDGSNNYNPSLKNRISITRDTSKNQFFLKLKSVTTEDTATYYCARRDYDGVAYWGQGTLVTVSA
VL: DVLMTQTPLSLPVSLGDQASISCRSSQSIVHSNGNTYLEWYLQKPGQSPKLLIYKVSNRFSGVPDRFSGSGSGTDFTLKISRVEAEDLGVYYCFQGSHVPWTFGGGTKLEIKR
Turning to B14, the binding result in experiment [1] and in experiment [3] was “no binding” throughout.

B15: LK-RB1-50 (antibody, human IgG4 S228P, kappa, V domains shown)
VH: QVQLKQSGPGLVQPSQSLSITCTVSGFSLTSYGVHWVRQSPGKGLEWLGVIWRGGNTDYNAPFVSRLSITKDNSQSQVFFKMNSLEADDTAIYYCAKNSLDVYSSWYFDVWGTGTTVTVSS
VL: QIVLSQSPAILSAFPGEKVTMTCRASSSVSFMHWYQQKPGSSPKPWIYATSNLASGVPARFSGSGSGTSYSLTISRVEAEDAATYYCQQWSSNPLTFGAGTKLELKR
On to B15, for which the EC50 in experiment [1] was found to be 605 nM; in experiment [3] it was 2.01 nM.

B16: LK-RB1-56 (antibody, human IgG4 S228P, kappa, V domains shown)
VH: QVQLKQSGPGLVQPSQSLSITCSVSGFSLTNYGVHWVRQSPGKGLEWLGVIWRGGSTDNNAAFMSRLSITKDNSKSQVFFKMNSLQADDTAIYYCAKNSDFYGSSWYFDVWGTGTTVTVSS
VL: QIVLSQSPAILSASPGEKVTMTCRASSSVSFMHWYQQKPGSSPKPWIYATSNLASGVPARFSGSGSGTSYSLTISRVEAEDAATYYCQQWSRNPPTFGAGTKLELKR
On to B16, for which the binding result in experiment [1] is given as “no binding”. Also, in experiment [3], the EC50 is 1.24 nM.

B17: LK-RB1-58 (antibody, human IgG4 S228P, kappa, V domains shown)
VH: QVQLKQSGPGLVQPSQSLSITCTVSGFSLTTYGVHWVRQSPGKGLEWLGVIWRGGSTDYNAAFMSRLSITKDNSKSQVFFRMNSLQADDTARYYCAKNSLYYGSSWYFDVWGTGTTVTVSS
VL: QIVLSQSPAILSASPGEKVTMTCRASSSVSFMHWYQQKPGSSPKPWIYATSNLASGVPARFSGSGSGTSYSLTISRVEAEDAATYYCQQWSSNPPTFGGGTKLEIKR
In the case of B17, the binding result in experiment [1] is “no binding”. Also, in experiment [3], it took 5 nM to reach a half-maximal effect (EC50).

The record behind these values is patent US20260234247A1 (published 2026).
